{"source": "the RNAGym collection of RNA variant scans (doi:10.1073/pnas.2313332121)", "parents": {"B1": {"name": "TPR t1 (parent)", "chain": "GACCAAUCUGCCCUCAGAGCUCGAGAACAUCUUCGGAUGCAGAGGAGGCAGGCUUCGGUGGCGCGAUAGCGCCAACGUCCUCAACCUCCAAUGCAUCCCACCACAUGAUGAUGCCUGAAGAGCCUUGGUUUUUUG"}}}
{"variants_of": "B1", "assay": "polymerase ribozyme fitness, log enrichment relative to wild type (log ratio); higher = more active; in vitro selection for triplet polymerase activity", "outline": "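A heterodimeric triplet polymerase ribozyme had each of its subunits mutagenized by PCR into a library, which was transcribed. One round of in vitro selection, done in triplicate, annealed each library with a biotinylated primer, its partner subunit and triplets, then incubated it frozen at −7 °C before gel excision of extended constructs, streptavidin-bead capture and RT-PCR. Fitness is the logarithm of genotype enrichment relative to wild-type enrichment, based on Illumina sequencing of inputs and outputs and inverse-variance-weighted replicate averages. A base-2 logarithm is used, and genotypes were kept only with ≥10 input reads and ≥1 read per output.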"}
{"variant": "GACCCAUAUGCCCUCAGAGCUCGAGAAUAUCUUCGGAUGCAGAGGAGGCAGGCCUCGGUGGCGCGAUAGCGCCAACGUCCUCAGCCUCCAAUGCAUCCCACCACAUGAUGAUGCCUGAAGAGCCUUGGUUUUUUG", "note": "[A5C C8A C28U U54C A84G]", "polymerase ribozyme fitness (log ratio)": -3.62}
{"variant": "GACCCAUCUGCCUUCAGAGCUCGAGAACAUCUUCGGAUGCAGAGGAGGCAGGCUUCGGUGGCGCGAUAGCGCCAACGUCCUCAACCUCCAAUGCAUCCCACCACAUGAUGAUGCCUGAAGAGCCUUGGUUUUUUG", "note": "[A5C C13U]", "polymerase ribozyme fitness (log ratio)": -0.876}
{"variant": "GACCCAUCUGCCCUCAGAGCUCGAGAACAUCUUCGGAUGUAGAGGAGGCAGGCUUCGGUGGCGCGAUAGCGCCAACGUCCUCAACCUCCAAUGCAUCCCACCACAUGAUGAUGCCUGAAGAGCCUUGGUUUUUUG", "note": "[A5C C40U]", "polymerase ribozyme fitness (log ratio)": -1.31}
{"variant": "GACCCAUCUGCCCUCAGAGCUCGAGAACAUCUUCGGAUGGAGAGGAGGCAGGCUUCGGUGGCGCGAUAGCGCCAACGUCCUCAACCUCCAAUGCAUCCCACCACAUGAUGAUGCCUGAAGAGCCUUGGUUUUUUG", "note": "[A5C C40G]", "polymerase ribozyme fitness (log ratio)": -1.78}
{"variant": "GACCCAUCUGCCCUUAGAGCUCGAGAACAUCUUCGGAUGCAGAGGAGGCAGGCUUCGGUCGCGCGAUAGCGCCAACGUCCUCAACCUCCAAUGCAACCCACCACAUGAUGAUGCCUGAAGAGCCUUGGUUUUUUG", "note": "[A5C C15U G60C U96A]", "polymerase ribozyme fitness (log ratio)": -2.98}
{"variant": "GACCCAUCUGCCAUCAGAGCUCGAGAACAUCUUAGGAUGCAGAGGAGGCAGGCUUCGGUGGCGCGAUAGCGCCAACGUCCUCUACCUCCAAUGCAUCCCACCACAUGGUGAUGCCUGAAGAGCAUUGGUUUUUUG", "note": "[A5C C13A C34A A83U A108G C124A]", "polymerase ribozyme fitness (log ratio)": -5.47}
{"variant": "GACCCAUCUGGCCUCAGAGCUCGAGAACAUCUUCGGAUGCAGAGGAGGCAGGCUUCGGUGGCGCGAUAGCGCCAACGUCCUCAACCGCAAAUGCAUCCCACCACAUGAUGAUGCCUGAACAGCCUUGGUUUUUUG", "note": "[A5C C11G U87G C89A G120C]", "polymerase ribozyme fitness (log ratio)": -0.971}
{"variant": "GACCCAUCUGCCCUCAGAGCUCGAGAACAUCUUCGGAUGCAGAGGAGGUAGGAUUCGGUGGCGCGAUAGCGCUAACGUCCUCAACCUCCAAUGCAUCCCACCACAUGAUGAUGCCUGAAGAGCCUUGGUUUUUUG", "note": "[A5C C49U C53A C73U]", "polymerase ribozyme fitness (log ratio)": -0.789}
{"variant": "GACCCAUGUGACCUCAGAGCUCGAGAACAUCUUCGGUUGCAGAGGAGGCAGGCUUCGGUGGCGCGAUAGCGCCAACGUCCUCAACCUCCAAUGCAUCCCACCACAUGAUGAUGCCUGAAGAGUCUUGGUUUUUUG", "note": "[A5C C8G C11A A37U C123U]", "polymerase ribozyme fitness (log ratio)": 0.423}
{"variant": "GACCCAUCUGCCCUCAGAGCUCGAGAACAUCUUCGGAUGCAGAGGAGGCAGGUUUCGGUGGCGCGAUAGCGCCAACGUCCUCAACCUCCAAUGCAUCCCACCACAUGAUGAUGCCUGAAGAGCCUUGGUUUUUUG", "note": "[A5C C53U]", "polymerase ribozyme fitness (log ratio)": -1.88}
{"variant": "GACCCAUCUGCCCUAAGAGCUCGAGAACAUCUUCGGAUGCAGAGGAGGCAGGCUUCGGUGGCGUGAUAGCGCCAACGUCCCCAACCUUCAAUGCAUCCCACCACAUGAUGAUGCCUGAAGAGCCUUGGUUUUUUG", "note": "[A5C C15A C64U U81C C88U]", "polymerase ribozyme fitness (log ratio)": -3.57}
{"variant": "GACCCAUCUGCCCUGAGAGCUCGAGAACAUCUUCGGAUGCAGAGGAGGCAGGCUUCUGUGGCGCGAUAGCGCCAACGUCCUCAACCUCCAAUGCAUCCCACCACAUGAUGAUGCCUGAAGAGCCUUGGUUUUUUG", "note": "[A5C C15G G57U]", "polymerase ribozyme fitness (log ratio)": -3.53}
{"variant": "GACCCAUCUGCACUCAGAGCUCGAGAACAUCUUCGGAUGCAGAGGAGGCAGGCUUCGGUGUCGCGAUAGCGCCAACGUCCUCAACCUCCAAUGCAUCCCACCACAUGAUGAUCCCUGAAGAGCCUUGGUUUUUUG", "note": "[A5C C12A G61U G113C]", "polymerase ribozyme fitness (log ratio)": -2.74}
{"variant": "GACCCAUCUGCCCUCAGAGCUAGAGAACAUCUUCGGAUGCAGAGGAGGCAGGCUUCGGUGGCGCGAUAGCGCCAACGUCCUCAACCUGCAAUGCAUCCCACCACAUGAUGAUGCCUGAAGAGCCUUGGUUUUUUG", "note": "[A5C C22A C88G]", "polymerase ribozyme fitness (log ratio)": -5.51}
{"variant": "GACCCAUCUGGCCUCAGAGCUCGAGAACAUCUUCGGAUGCCGAGGAGGCAGGCUUCGGUGGCGCGAUAGCCCCAACGUCCUCAACCUCCAAUGCAUCCCACCAUAUGAUGAUGCCUGAAGAGCCUUGGUUUUUUG", "note": "[A5C C11G A41C G71C C104U]", "polymerase ribozyme fitness (log ratio)": -2.45}
{"variant": "GACCCAUCUGCCCUCAGAGAUCGAGAACAUCUUCGGGUGCAGAGGAGGCAGGCUUCGGUGGCGCGAUAGCGCCAACGUCCUCAUCCUCCCAUGCAUCCCACCACAUGAGGAUGCCUGAAGAGCCUUGGUUUUUUG", "note": "[A5C C20A A37G A84U A90C U109G]", "polymerase ribozyme fitness (log ratio)": -4.05}
{"variant": "GACCCAUCUGACCUCAGAGCUCGAGAACAUCUUCGGAUGCAGAGGAGGCAGGCAUCGGUGGCGCGAUAGCGCCAACGUCCUCAACCUCCAAUGCAUCCCACCAUAUGAUGAUGCCUGAAGAGCCUUGGUUUUUUG", "note": "[A5C C11A U54A C104U]", "polymerase ribozyme fitness (log ratio)": -0.94}
{"variant": "GACCCAUCUGCCCUCAGAGCUCGAGAACAUCUUCGGAUGCAGAGGAGGCAGGGUUCGGUGGCGUGAUAGCGCCAACGUCCUCAACCUCCAAUGUAUCCCACCACAUGAUGAUGCCUGAAGAGCCUUGGUUUUUUG", "note": "[A5C C53G C64U C94U]", "polymerase ribozyme fitness (log ratio)": -1.07}
{"variant": "GACCCAUCUGCCAUCAGAGCUCGAGAACAUCUUCGGAUGCAGAGGAGGCAGGCUUCGGUGGCGCGAUAGCGCCAACGUCCUCAACCUCCAAUGAAUCCCACCACAUGAUGAGGCCUGAAGAGCCUUGGUUUUUUG", "note": "[A5C C13A C94A U112G]", "polymerase ribozyme fitness (log ratio)": -2.97}
{"variant": "GACCCAUCUGCCCUCAGAGCUCGAGAACAUCUUCGGAUGCAGAGGCGGCAGGCUUAGGUGGCGCGAUAGCGCCAACGUCCUCAACCUCCAAUGCAUCCCACUACAUGAUGAUGCCUGAAGAGCCUUGGUUUUUUG", "note": "[A5C A46C C56A C102U]", "polymerase ribozyme fitness (log ratio)": -3.74}
{"variant": "GACCCAUCUGCACUCAGAGCUCGAGAACAUCUUCGGAUGCAGAGGAGGCAGGCUUCGGUGGCGCGAUAGCGCCAACGUCCUCAACCUCCAAUGCACCCCACCACAUGAUGAUGCCUGAAGAGCCUUGCUUUUUUG", "note": "[A5C C12A U96C G128C]", "polymerase ribozyme fitness (log ratio)": -2.92}
